From patent US20210228731A1 (Novartis, published 2021)
Numbering of substitutions follows the chain as printed.

T1: Cynomolgus monkey cKIT D1-5 (cynomolgus monkey, UniProt P10721 26-524 (human entry))
T1 construct: also called cyno cKIT ECD
T1 chain: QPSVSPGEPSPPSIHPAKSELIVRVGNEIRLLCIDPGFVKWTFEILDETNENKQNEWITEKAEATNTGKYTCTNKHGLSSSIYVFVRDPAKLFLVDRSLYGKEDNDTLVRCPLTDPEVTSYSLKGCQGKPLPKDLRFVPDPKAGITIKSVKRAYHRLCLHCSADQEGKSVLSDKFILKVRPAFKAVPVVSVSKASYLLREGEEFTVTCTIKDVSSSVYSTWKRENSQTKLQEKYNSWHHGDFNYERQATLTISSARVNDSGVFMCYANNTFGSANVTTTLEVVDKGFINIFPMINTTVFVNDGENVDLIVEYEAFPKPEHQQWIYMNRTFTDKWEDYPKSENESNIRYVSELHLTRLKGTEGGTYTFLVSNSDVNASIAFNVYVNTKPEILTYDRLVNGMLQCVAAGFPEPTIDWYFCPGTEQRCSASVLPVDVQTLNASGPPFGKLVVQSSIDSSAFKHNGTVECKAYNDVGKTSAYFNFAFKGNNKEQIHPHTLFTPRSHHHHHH

T2: Mouse cKIT ECD, C-terminal 6x His (Sino Biological Inc, catalog number 50530-M08H) (mouse, UniProt P05532 25-527)
T2 construct: extracellular domain
T2 sequence: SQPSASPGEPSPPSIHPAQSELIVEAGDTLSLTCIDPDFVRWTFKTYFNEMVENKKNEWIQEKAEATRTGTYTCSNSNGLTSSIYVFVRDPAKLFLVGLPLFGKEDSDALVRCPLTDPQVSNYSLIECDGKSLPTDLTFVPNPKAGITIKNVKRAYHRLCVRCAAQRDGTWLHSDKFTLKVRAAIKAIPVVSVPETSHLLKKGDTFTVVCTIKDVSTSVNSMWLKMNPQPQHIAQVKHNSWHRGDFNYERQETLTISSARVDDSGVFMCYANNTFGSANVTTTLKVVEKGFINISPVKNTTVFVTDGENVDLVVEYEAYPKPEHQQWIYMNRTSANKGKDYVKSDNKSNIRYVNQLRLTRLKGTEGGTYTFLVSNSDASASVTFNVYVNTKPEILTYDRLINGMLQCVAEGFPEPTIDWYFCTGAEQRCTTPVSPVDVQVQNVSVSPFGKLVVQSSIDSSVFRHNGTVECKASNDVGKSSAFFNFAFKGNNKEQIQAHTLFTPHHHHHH

T3: Rat cKIT D1-5, C-terminal mFc (rat)
T3 construct: also called rat cKIT-mFc
T3 chain: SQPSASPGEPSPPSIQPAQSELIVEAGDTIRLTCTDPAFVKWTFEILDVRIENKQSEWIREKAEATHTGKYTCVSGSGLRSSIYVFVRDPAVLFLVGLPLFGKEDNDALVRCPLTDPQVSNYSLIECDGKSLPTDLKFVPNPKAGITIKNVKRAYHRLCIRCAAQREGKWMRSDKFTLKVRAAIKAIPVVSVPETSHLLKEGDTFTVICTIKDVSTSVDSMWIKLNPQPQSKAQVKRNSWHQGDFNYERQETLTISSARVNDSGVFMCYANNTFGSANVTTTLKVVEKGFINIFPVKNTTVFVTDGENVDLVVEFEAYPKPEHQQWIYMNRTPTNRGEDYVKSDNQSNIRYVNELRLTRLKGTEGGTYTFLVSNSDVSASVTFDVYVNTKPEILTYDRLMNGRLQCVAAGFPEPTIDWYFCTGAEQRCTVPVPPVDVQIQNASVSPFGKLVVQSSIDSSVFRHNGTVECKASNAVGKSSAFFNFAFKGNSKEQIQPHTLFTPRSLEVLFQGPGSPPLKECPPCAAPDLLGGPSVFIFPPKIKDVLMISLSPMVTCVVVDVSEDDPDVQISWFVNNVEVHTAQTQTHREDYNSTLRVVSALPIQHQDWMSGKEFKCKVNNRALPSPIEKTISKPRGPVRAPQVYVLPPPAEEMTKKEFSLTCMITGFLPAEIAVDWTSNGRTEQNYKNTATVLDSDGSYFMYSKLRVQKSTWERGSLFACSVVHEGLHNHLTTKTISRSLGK

B1: Anti-cKIT Ab5 (antibody, human IgG1, lambda, V domains shown)
VH: QVQLVQSGAEVKKPGESLKISCKGSGYSFTNYWIAWVRQMPGKGLEWMGIIYPSNSYTLYSPSFQGQVTISADKSISTAYLQWSSLKASDTAMYYCARVPPGGSISYPAFDHWGQGTLVTVSS
VL: DIELTQPPSVSVSPGQTASITCSGDNIGSIYASWYQQKPGQAPVLVIYRDNKRPSGIPERFSGSNSGNTATLTISGTQAEDEADYYCSVTDMEQHSVFGGGTKLTVLG
notes: Full-length human IgG1, lambda light chain
B2: Anti-cKIT Ab1 (antibody, human IgG1, kappa, V domains shown)
VH: QVQLVQSGAEVKKPGSSVKVSCKASGGTFSSYAISWVRQAPGQGLEWMGVIFPAEGAPGYAQKFQGRVTITADESTSTAYMELSSLRSEDTAVYYCARGGYISDFDVWGQGTLVTVSS
VL: DIQMTQSPSSLSASVGDRVTITCRASQSISNYLAWYQQKPGKAPKLLIYDASSLQSGVPSRFSGSGSGTDFTLTISSLQPEDFATYYCQQYYYESITFGQGTKVEIKR
notes: Full-length human IgG1, kappa light chain
B3: Anti-cKIT Ab2 (antibody, human IgG1, kappa, V domains shown)
VH: QVQLVQSGAEVKKPGSSVKVSCKASGGTFSSHALSWVRQAPGQGLEWMGGIIPSFGTADYAQKFQGRVTITADESTSTAYMELSSLRSEDTAVYYCARGLYDFDYWGQGTLVTVSS
VL: B2 VL with S28D, N31Q, Y32D, T85V, E94L, S95P, I96S
notes: as for B2
B4: Anti-cKIT Ab4 (antibody, human IgG1, lambda, V domains shown)
VH: QVQLQQSGPGLVKPSQTLSLTCAISGDSVSTNSAAWNWIRQSPSRGLEWLGRIYYRSQWLNDYAVSVKSRITINPDTSKNQFSLQLNSVTPEDTAVYYCARQLTYPYTVYHKALDVWGQGTLVTVSS
VL: DIELTQPPSVSVSPGQTASITCSGDNLGDQYVSWYQQKPGQAPVLVIYDDTDRPSGIPERFSGSNSGNTATLTISGTQAEDEADYYCQSTDSKSVVFGGGTKLTVLG
notes: as for B1
B5: Anti-cKIT Ab3 (antibody, human IgG1, kappa, V domains shown)
VH: B2 VH with V50T, F52G, A54F, A57Q, G59R
VL: B2 VL
notes: as for B2

The binders below were run against T4, Human cKIT D1-5 (extracellular domain) (human, UniProt P10721 26-524) (assay: SET per the column head (Example 4 describes SPR, Biacore: antibody captured by anti-human Fc, cKIT ECD in solution)).
T4 construct: also called human cKIT ECD; full-length cKIT ECD
T4 sequence (P10721 other isoform, or with tags, fused parts or gaps): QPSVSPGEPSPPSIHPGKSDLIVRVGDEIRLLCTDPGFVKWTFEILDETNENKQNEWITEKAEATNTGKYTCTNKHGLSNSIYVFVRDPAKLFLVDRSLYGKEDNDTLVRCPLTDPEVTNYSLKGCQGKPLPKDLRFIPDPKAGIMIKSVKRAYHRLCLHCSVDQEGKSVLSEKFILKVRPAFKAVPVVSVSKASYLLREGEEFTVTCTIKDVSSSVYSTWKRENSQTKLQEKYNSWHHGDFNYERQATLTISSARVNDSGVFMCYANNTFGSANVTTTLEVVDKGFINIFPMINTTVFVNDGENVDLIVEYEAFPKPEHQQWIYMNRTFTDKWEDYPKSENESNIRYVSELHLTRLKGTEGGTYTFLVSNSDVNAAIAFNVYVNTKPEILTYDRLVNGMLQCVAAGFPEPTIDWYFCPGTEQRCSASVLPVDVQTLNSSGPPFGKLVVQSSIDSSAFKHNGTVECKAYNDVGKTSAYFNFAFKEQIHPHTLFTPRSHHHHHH

Kd	Binder
0.11 nM	B1
0.094 nM	B2
0.007 nM	B3
2.4 nM	B4

Molecular target: T1, Cynomolgus monkey cKIT D1-5
Experiment: as above

Kd	Binder
0.18 nM	B1
0.17 nM	B2
0.01 nM	B3
0.052 nM	B5
0.14 nM	B4

The binders below were run against T2, Mouse cKIT ECD, C-terminal 6x His (Sino …) (assay: reactivity to mouse cKIT (method not given; Example 4 describes SPR)).

binding result	Binder
no binding	B2
no binding	B3
no binding	B5

Molecular target: T3, Rat cKIT D1-5, C-terminal mFc
Experiment: reactivity to rat cKIT (method not given; Example 4 describes SPR)

binding result	Binder
binds	B1
no binding	B2
no binding	B3
no binding	B5
binds	B4
